Test results: paper PMC3893231 (mAbs, 2013)

Target: T1, Ang2 (UniProt O15123 19-496)
T1 sequence: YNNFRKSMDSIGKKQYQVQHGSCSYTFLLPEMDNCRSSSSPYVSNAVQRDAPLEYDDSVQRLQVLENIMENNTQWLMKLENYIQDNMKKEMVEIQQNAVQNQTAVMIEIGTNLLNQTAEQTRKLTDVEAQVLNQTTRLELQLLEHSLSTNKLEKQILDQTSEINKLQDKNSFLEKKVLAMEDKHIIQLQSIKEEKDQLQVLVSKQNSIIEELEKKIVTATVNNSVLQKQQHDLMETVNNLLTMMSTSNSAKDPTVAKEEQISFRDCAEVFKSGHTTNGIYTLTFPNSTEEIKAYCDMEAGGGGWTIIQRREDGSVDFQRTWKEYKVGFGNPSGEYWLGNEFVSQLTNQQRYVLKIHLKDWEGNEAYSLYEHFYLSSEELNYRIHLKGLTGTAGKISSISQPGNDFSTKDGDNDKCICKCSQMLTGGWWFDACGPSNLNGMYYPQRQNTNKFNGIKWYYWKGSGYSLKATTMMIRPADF
Assay: SPR

Kd: 22.2 ± 0.08 nM
Binder: LWDDCYFFPNPPHCYNSP (designed binder) [MBP-a1]
